Experimental data taken from paper PMC1635325 (Nucleic Acids Research, 2006).

B1: recombinant MnmE (rMnmE, 53 kDa) (natural protein, E. coli, UniProt P25522 1-454, looked up)
chain: MSDNDTIVAQATPPGRGGVGILRISGFKAREVAETVLGKLPKPRYADYLPFKDADGSVLDQGIALWFPGPNSFTGEDVLELQGHGGPVILDLLLKRILTIPGLRIARPGEFSERAFLNDKLDLAQAEAIADLIDASSEQAARSALNSLQGAFSARVNHLVEALTHLRIYVEAAIDFPDEEIDFLSDGKIEAQLNDVIADLDAVRAEARQGSLLREGMKVVIAGRPNAGKSSLLNALAGREAAIVTDIAGTTRDVLREHIHIDGMPLHIIDTAGLREASDEVERIGIERAWQEIEQADRVLFMVDGTTTDAVDPAEIWPEFIARLPAKLPITVVRNKADITGETLGMSEVNGHALIRLSARTGEGVDVLRNHLKQSMGFDTNMEGGFLARRRHLQALEQAAEHLQQGKAQLLGAWAGELLAEELRLAQQNLSEITGEFTSDDLLGRIFSSFCIGK
B2: FLAG-GidA (natural protein, E. coli, UniProt P0A6U3 1-629, looked up)
chain: MFYPDPFDVIIIGGGHAGTEAAMAAARMGQQTLLLTHNIDTLGQMSCNPAIGGIGKGHLVKEVDALGGLMAKAIDQAGIQFRILNASKGPAVRATRAQADRVLYRQAVRTALENQPNLMIFQQAVEDLIVENDRVVGAVTQMGLKFRAKAVVLTVGTFLDGKIHIGLDNYSGGRAGDPPSIPLSRRLRELPLRVGRLKTGTPPRIDARTIDFSVLAQQHGDNPMPVFSFMGNASQHPQQVPCYITHTNEKTHDVIRSNLDRSPMYAGVIEGVGPRYCPSIEDKVMRFADRNQHQIFLEPEGLTSNEIYPNGISTSLPFDVQMQIVRSMQGMENAKIVRPGYAIEYDFFDPRDLKPTLESKFIQGLFFAGQINGTTGYEEAAAQGLLAGLNAARLSADKEGWAPARSQAYLGVLVDDLCTLGTKEPYRMFTSRAEYRLMLREDNADLRLTEIGRELGLVDDERWARFNEKLENIERERQRLKSTWVTPSAEAAAEVNAHLTAPLSREASGEDLLRRPEMTYEKLTTLTPFAPALTDEQAAEQVEIQVKYEGYIARQQDEIEKQLRNENTLLPATLDYRQVSGLSNEVIAKLNDHKPASIGQASRISGVTPAAISILLVWLKKQGMLRRSA

Experiments:
[1] = biological target: B2; assay: native gel or EMSA
[2] = biological target: the molecule itself; assay: SEC

Binder	stoichiometry N [1]	stoichiometry N [2]
B1	1 MnmE per GidA (α2β2, 2:2)	
B2		2
